Consider four substances from patent US20010021505A1.

For experiment [1], the target named is NPM/ALK fusion protein (human). Briefly: co-immunoprecipitation with anti-ALK serum, immunoblot, SUP-M2 lysates. (A western blot detects proteins with antibodies after separation by electrophoresis.)
The target in experiment [2] is wild-type NPM (nucleophosmin) (human) (UniProt P06748). Briefly: co-immunoprecipitation, anti-NPM immunoblot.
For experiment [3], the target named is phospholipase-Cγ (PLC-γ) (human) (UniProt P19174). Description: co-immunoprecipitation, immunoblot, SUP-M2 lysates.
UniProt P19174, sequence (P19174 2-1290): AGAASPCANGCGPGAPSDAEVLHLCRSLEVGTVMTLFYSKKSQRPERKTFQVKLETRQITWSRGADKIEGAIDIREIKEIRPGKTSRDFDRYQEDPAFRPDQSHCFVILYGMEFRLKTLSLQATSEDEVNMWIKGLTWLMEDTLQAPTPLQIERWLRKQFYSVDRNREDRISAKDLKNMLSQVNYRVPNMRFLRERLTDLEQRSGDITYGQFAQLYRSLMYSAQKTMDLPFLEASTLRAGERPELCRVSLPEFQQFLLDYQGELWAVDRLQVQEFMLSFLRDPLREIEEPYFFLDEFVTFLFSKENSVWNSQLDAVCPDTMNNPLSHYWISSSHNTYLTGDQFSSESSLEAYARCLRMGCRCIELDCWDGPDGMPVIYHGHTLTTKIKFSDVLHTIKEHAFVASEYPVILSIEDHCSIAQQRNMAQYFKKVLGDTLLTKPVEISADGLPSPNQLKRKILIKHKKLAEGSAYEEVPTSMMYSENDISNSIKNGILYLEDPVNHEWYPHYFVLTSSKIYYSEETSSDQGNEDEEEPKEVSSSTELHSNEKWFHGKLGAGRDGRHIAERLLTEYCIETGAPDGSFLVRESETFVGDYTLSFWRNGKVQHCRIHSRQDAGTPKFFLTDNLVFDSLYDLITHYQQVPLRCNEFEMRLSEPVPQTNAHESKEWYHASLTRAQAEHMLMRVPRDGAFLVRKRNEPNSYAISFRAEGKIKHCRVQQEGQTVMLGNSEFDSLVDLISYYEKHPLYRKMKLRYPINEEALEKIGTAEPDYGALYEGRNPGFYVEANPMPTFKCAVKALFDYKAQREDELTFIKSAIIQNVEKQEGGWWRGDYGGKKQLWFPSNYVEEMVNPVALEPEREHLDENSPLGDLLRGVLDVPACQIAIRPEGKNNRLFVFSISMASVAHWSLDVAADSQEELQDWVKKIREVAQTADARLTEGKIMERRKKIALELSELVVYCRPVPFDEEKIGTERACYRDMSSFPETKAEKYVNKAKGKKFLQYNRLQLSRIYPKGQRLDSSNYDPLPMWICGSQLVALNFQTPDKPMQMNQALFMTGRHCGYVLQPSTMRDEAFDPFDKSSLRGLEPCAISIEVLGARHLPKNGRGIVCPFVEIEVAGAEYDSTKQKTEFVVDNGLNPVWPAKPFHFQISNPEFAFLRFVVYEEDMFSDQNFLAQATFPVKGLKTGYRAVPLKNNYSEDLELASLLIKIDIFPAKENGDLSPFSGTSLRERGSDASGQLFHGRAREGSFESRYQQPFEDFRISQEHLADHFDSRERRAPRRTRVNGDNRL
For experiment [4], the target named is T1, Src homologous and collagen (SHC) protein (human) (UniProt P29353).
T1 sequence (tyrosine-phosphorylated (sites not given), looked up): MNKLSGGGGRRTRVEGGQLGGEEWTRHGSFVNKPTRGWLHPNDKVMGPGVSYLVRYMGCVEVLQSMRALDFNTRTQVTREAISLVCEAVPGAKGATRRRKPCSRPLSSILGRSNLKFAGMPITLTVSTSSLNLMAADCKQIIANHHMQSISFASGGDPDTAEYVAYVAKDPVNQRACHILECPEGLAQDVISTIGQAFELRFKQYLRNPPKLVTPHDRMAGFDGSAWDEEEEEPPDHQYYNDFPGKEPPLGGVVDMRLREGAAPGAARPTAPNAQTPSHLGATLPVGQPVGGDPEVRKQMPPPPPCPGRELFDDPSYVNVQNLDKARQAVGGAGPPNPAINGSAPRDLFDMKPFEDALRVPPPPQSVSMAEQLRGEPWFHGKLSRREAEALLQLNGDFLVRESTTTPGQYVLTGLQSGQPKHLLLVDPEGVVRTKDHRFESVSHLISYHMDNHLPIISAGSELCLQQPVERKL
Description: co-immunoprecipitation, immunoblot, SUP-M2 lysates.

The target of experiment [5] is 85 kDa subunit of phosphatidylinositol 3-kinase (PI3-K) (human) (UniProt P27986). Briefly: co-immunoprecipitation, immunoblot, SUP-M2 lysates.
UniProt P27986, sequence (P27986 2-724): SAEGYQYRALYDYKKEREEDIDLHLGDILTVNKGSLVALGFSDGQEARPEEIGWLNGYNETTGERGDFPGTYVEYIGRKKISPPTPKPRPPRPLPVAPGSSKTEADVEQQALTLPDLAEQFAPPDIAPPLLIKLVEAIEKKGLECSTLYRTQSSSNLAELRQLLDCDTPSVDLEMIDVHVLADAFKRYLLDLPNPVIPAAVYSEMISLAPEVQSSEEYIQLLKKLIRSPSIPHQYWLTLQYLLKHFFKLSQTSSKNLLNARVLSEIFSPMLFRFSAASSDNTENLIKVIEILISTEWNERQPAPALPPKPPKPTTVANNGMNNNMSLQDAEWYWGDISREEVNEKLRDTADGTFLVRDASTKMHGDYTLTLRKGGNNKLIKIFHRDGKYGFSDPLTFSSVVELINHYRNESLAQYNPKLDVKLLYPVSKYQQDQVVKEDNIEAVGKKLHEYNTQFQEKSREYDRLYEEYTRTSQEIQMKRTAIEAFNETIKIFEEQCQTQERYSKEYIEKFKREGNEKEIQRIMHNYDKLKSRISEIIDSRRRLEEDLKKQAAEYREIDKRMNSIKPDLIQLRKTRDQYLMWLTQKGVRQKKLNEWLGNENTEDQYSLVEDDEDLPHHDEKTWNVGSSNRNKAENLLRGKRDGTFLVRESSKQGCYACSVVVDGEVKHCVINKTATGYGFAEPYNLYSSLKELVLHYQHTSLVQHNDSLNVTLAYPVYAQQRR

UniProt P06748, sequence (P06748 whole entry): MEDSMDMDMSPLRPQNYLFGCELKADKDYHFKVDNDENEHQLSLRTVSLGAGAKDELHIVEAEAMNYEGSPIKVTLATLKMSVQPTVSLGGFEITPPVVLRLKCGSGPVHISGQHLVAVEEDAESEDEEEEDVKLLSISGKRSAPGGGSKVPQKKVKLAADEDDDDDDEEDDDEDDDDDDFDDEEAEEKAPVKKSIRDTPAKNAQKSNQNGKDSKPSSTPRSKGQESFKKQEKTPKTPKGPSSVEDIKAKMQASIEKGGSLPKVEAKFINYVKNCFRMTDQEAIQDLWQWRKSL

“Src homologous and collagen (SHC) protein (from UniProt P29353 1-473)” showed a percentage of the total cellular amount of the substrate bound to NPM/ALK in experiment [1] of 10%. “85 kDa subunit of phosphatidylinositol 3-kinase (PI3-K) (from UniProt P27986 2-724)” gave a percentage of the total cellular amount of the substrate bound to NPM/ALK in experiment [1] of 1%. Turning to NPM/ALK fusion protein (enzyme), the stoichiometry of the association (ratio) (ratio NPM/ALK:NPM) in experiment [2] was determined as 1. In addition, the percentage of the total cell pool of NPM/ALK bound to the substrate in experiment [3], in experiment [4] and in experiment [5] was < 5% each time. For “phospholipase-Cγ (PLC-γ) (from UniProt P19174 2-1290) (enzyme)”, the percentage of the total cellular amount of the substrate bound to NPM/ALK in experiment [1] amounted to 1%.
